The results in this text go back to patent US20240131162A1.

The term koff denotes the rate constant with which the complex falls apart. A higher koff goes with fast dissociation. Usually kon stands for a measure of how fast the partners come together. A low value points to slower complex formation.

This assay concerns the target HER-2 (human) (UniProt P04626). Kind of assay: SPR (BIAcore), HER-2 immobilised, antibody as analyte. Background: In SPR one partner is held on a chip, and binding of the other changes the refractive index at the surface.

With ch4D5 (antibody), the koff turned out to be 6.3e-06 s⁻¹ and the kon is 110000 M⁻¹ s⁻¹.
